Patent US9744220B2, “Compositions and methods for treating inflammatory diseases” (priority 2013, dated 2017)

System: MCP-1 and FKN
Assay: Single dose IV sPDNF into naive wild type C57BL/6 mice, MCP-1 and FKN by real time PCR
Assay type: in vivo
Protocol: Wild type C57BL/6 mice were used in the results depicted in FIGS. 11A-11D. FIG. 11A is a graph depicting that a single dose of intravenous (IV) sPDNF increased MCP-1 and FKN transcripts in the heart in a pulse-like response. Groups of mice (2 per group) were injected with vehicle (Veh) or sPDNF (150 μg/mouse) and sacrificed at 3, 6, 9 and 12 hr post-injection, and cardiac MCP-1 and FKN transcripts were quantified by qPCR. Points represent fold change of the mean±SD relative to Veh injected mice; *P<0.05 and **P<0.01. Experiment repeated three times with similar results; liver also responded with similar pulselike kinetics. FIG. 11B is a graph depicting that organ distribution of MCP-1 increased following a single IV dose of sPDNF. Experimental design analogous to that summarized above. FIG. 11C is a graph showing that a single IV dose of sPDNF augments MCP-1 and FKN transcripts dose-dependently in the heart. FIG. 11D is a graph showing that a single IV dose of sPDNF augments MCP-1 and FKN transcripts dose-dependently in the liver. For the results depicted in FIGS. 11C and 11D, groups of three mice were injected with various doses of sPDNF, and heart and liver harvested 3 hr post-injection to quantify MCP-1 and FKN by qPCR. The results are plotted as a composite of three distinct experiments. […] For the results depicted in FIGS. 11E-11H, TLR-deficient MyD88^−/− mice (two per group) were injected IV with vehicle (PBS) or sPDNF (100 μg per mouse), sacrificed 3 hr post-injection. FIG. 11E is a graph showing MCP-1 expression in the heart of MyD88^−/− mice injected with sPDNF. FIG. 11F is a graph showing FKN expression in the heart of MyD88^−/− mice injected with sPDNF. FIG. 11G is a graph showing MCP-1 expression in the liver of MyD88^−/− mice injected with sPDNF. FIG. 11H is a graph showing FKN expression in the liver of MyD88^−/− mice injected with sPDNF.
Groups of naive wild type C57BL/6 mice were injected with vehicle (PBS) or a single dose of IV sPDNF. Mice were sacrificed at various timepoints post-injection, and heart MCP-1 and FKN expression measured by real time PCR. […] The agonist effect of IV sPDNF was screened in various organs using optimum time response (3 hr post-injection) using the same dose as in FIG. 11A. […] Organ distribution of MCP-1 expression in response to IV sPDNF was similar to that of FKN. Without being bound to a particular theory, the selective increase of MCP-1 and FKN in various organs may reflect the uneven expression of PDNF receptors TrkA and TrkC in neural and non-neural tissues (22, 50).
RNA was isolated from Trizol lysates of cell monolayers or liquid nitrogen snap frozen tissue samples dissociated by a Tissue-Tearor mechanical homogenizer (Biospec Products, Inc.). cDNA was synthesized using the Quantitect Reverse Transcription kit (Qiagen) according to manufacturer's instructions. Chemokine and chemokine receptor transcripts were amplified using specific primers and normalized to HPRT using SYBR Green (Qiagen), and, if needed, expressed relative to control-unstimulated cells. The following primers were used: […]
sPDNF was diluted in sterile endotoxin-free PBS (200 μl) and injected via the tail vein into 6-8 week old female C57BL/6 mice. Mice receiving single IV injections of 150 μg sPDNF per mouse were sacrificed at 3, 6, 9, and 12 hr post-injection, or various doses of sPDNF (100 ng-150 μg) and sacrificed 3 hr post-injection. Mice receiving multiple injections of sPDNF or PBS vehicle control (0, 3, and 24 hr, 100 μg per injection) were sacrificed 24 hr after the last injection (i.e., 48 hr after the first injection). Mice were perfused with PBS and organs harvested as described above.

[1] = single IV dose 150 μg/mouse, pulse-like kinetics
[2] = various single IV doses, 3 hr post-injection

B1: sPDNF: N-terminal short-form of T cruzi PDNF that contains Trk-binding sites, recombinant; amino acids 1-588 of SEQ ID NO: 2; JR-100 is the commercial name (protein, listed as Trypanosoma cruzi)
chain: MGKTVVVASRMFWLMFFVPLLLAICPSEPAYALAPGSSRVELFKRKNSTVPFEDKAGKVTERVVHSFRLPALVNVDGVMVAIADARYDTSNDNSLIDTVAKYSVDDGETWETQIAIKNSRVSSVSRVVDPTVIVKGNKLYVLVGSYYSSRSYWSSHGDARDWDILLAVGEVTKSTAGGKITASIKWGSPVSLKKFFPAEMEGMHTNQFLGGAGVAIVASNGNLVYPVQVTNKKKQVFSKIFYSEDDGKTWKFGKGRSDFGCSEPVALEWEGKLIINTRVDWKRRLVYESSDMEKPWVEAVGTVSRVWGPSPKSNQPGSQSSFTAVTIEGMRVMLFTHPLNFKGRWLRDRLNLWLTDNQRIYNVGQVSIGDENSAYSSVLYKDDKLYCLHEINTDEVYSLVFARLVGELRIIKSVLRSWKNWDSHLSSICTPADPAASSSESGCGPAVTTVGLVGFLSGNASQNVWEDAYRCVNASTANAERVRNGLKFAGVGGGALWPVSQQGQNQRYRFANHAFTLVASVTIHEAPRAASPLLGASLDSSGGKKLLGLSYDEKHQWQPIYGSTPVTPTGSWETGKRYHLVLTMANKI
B1 was tested, and the “cardiac FKN transcripts” value [1] was “significantly increased”, the “cardiac MCP-1 transcripts” value [1] was “significantly increased” and the “expression of MCP-1 in the heart, liver and spleen” value (single IV dose, 3 hr post-injection, liver most robust) was “increased expression”. For the same molecule, the “time of peak of cardiac FKN” value (single IV dose, post-injection) was 3 h, the “time of peak of cardiac MCP-1” value (single IV dose, post-injection) was 3 h and the “increased expression of FKN in the heart” value [2] was “dose-dependent”. The “increased expression of MCP-1 in the heart” value [2] was “dose-dependent” and the “increased expression of MCP-1 in the liver” value [2] was “dose-dependent”.
